In patent US20240158475A1:

B1: Mutation 1-31 (antibody, V domains shown)
VH: EVQLQQSGTELVRPGALVKLSCKASGFNIKDYYIHWVKQRPRQGLEWIGWIDPENGKTLYDPKFQDKASITSDTSTNTAYLQLRSLTSEDTAVYYCVTAYVRFVYWGQGTLVTVSA
VL: QIVLTQSPAIMSAFPGERVTMTCSASTSVRYMYWHQQKPGSSPRLLIYDTSNLASGVPVRFSGSGSGTSYSLTISRDEAMDAATYYCQQWSSFPRTFGGGTKLEIKR
B2: Mutation 1-38 (antibody, V domains shown)
VH: EVQLQQSGTELVRPGALVKLSCKASGFNIKDYYLHWVKQRPRQGLEWIGWIDPENGKTLYDPKFQDKASITSDTSTNTAYLQLRSLTSEDTAVYYCVTAYFRFVYWGQGTLVTVSA
VL: QIVLTQSPAIMSAFPGERVTMTCSASSSVRYMYWHQQKPGSSPRLLIYDTSNIASGVPVRFSGSGSGTSYSLTISRDEAMDAATYYCQQWSSYPRTFGGGTKLEIKR
B3: WT 1-7 (antibody, V domains shown)
VH: EVQLQQSGTELVRPGALVKLSCKASGFNIKEYYVHWVKQRPRQGLEWIGWIDPDNGKTIYDPKVQDKASITSDTSTNTAYLQLRSLTSEDTAVYYCVSAYVRFVYWGQGTLVTVSA
VL: QIVLTQSPAIMSAFPGERVTMTCSASTSVKYMYWHQQKPGSSPRLLIYETSNVASGFPVRFSGSGSGTSYSLTISRDEAMDAATYYCQQQSSTPRTFGGGTKLEIKR
B4: Mutation 1-41 (antibody, V domains shown)
VH: EVQLQQSGTELVRPGALVKLSCKASGFNIKDYYLHWVKQRPRQGLEWIGWIDPENGKTIYDPKFQDKASITSDTSTNTAYLQLRSLTSEDTAVYYCVSAYYRFVYWGQGTLVTVSA
VL: QIVLTQSPAIMSAFPGERVTMTCSASTSVRYMYWHQQKPGSSPRLLIYDTSNIASGVPVRFSGSGSGTSYSLTISRDEAMDAATYYCQQWSSYPRTFGGGTKLEIKR
B5: Mutation 1-1 (antibody, V domains shown)
VH: EVQLQQSGTELVRPGALVKLSCKASGFNIKDYYIHWVKQRPRQGLEWIGWIDPENGKTIYDPKFQDKASITSDTSTNTAYLQLRSLTSEDTAVYYCVTAYFRFVYWGQGTLVTVSA
VL: QIVLTQSPAIMSAFPGERVTMTCSASTSVRYMYWHQQKPGSSPRLLIYDTSNLASGVPVRFSGSGSGTSYSLTISRDEAMDAATYYCQQWSSYPRTFGGGTKLEIKR
B6: Mutation 1-33 (antibody, V domains shown)
VH: EVQLQQSGTELVRPGALVKLSCKASGFNIKDYYVHWVKQRPRQGLEWIGWIDPENGKTLYDPKFQDKASITSDTSTNTAYLQLRSLTSEDTAVYYCVTAYYRFVYWGQGTLVTVSA
VL: QIVLTQSPAIMSAFPGERVTMTCSASTSVRYMYWHQQKPGSSPRLLIYDTSNIASGVPVRFSGSGSGTSYSLTISRDEAMDAATYYCQQWSSYPRTFGGGTKLEIKR
B7: Mutation 1-4 (antibody, V domains shown)
VH: EVQLQQSGTELVRPGALVKLSCKASGFNIKDYYIHWVKQRPRQGLEWIGWIDPENGKTLYDPKFQDKASITSDTSTNTAYLQLRSLTSEDTAVYYCVSAYFRFVYWGQGTLVTVSA
VL: QIVLTQSPAIMSAFPGERVTMTCSASSSVRYMYWHQQKPGSSPRLLIYDTSNLASGVPVRFSGSGSGTSYSLTISRDEAMDAATYYCQQWSSYPRTFGGGTKLEIKR
B8: WT 1-1 (antibody, V domains shown)
VH: EVQLQQSGTELVRPGALVKLSCKASGFNIKEYYIHWVKQRPRQGLEWIGWIDPDNGKTIYDPKVQDKASITSDTSTNTAYLQLRSLTSEDTAVYYCVTAYFRFVYWGQGTLVTVSA
VL: QIVLTQSPAIMSAFPGERVTMTCSASTSVKYMYWHQQKPGSSPRLLIYETSNIASGFPVRFSGSGSGTSYSLTISRDEAMDAATYYCQQQSSYPRTFGGGTKLEIKR
B9: Mutation 1-32 (antibody, V domains shown)
VH: EVQLQQSGTELVRPGALVKLSCKASGFNIKDYYLHWVKQRPRQGLEWIGWIDPENGKTIYDPKFQDKASITSDTSTNTAYLQLRSLTSEDTAVYYCVTAYFRFVYWGQGTLVTVSA
VL: QIVLTQSPAIMSAFPGERVTMTCSASSSVRYMYWHQQKPGSSPRLLIYDTSNIASGVPVRFSGSGSGTSYSLTISRDEAMDAATYYCQQWSSTPRTFGGGTKLEIKR
B10: Mutation 1-36 (antibody, V domains shown)
VH: EVQLQQSGTELVRPGALVKLSCKASGFNIKDYYVHWVKQRPRQGLEWIGWIDPENGKTIYDPKFQDKASITSDTSTNTAYLQLRSLTSEDTAVYYCVTAYFRFVYWGQGTLVTVSA
VL: QIVLTQSPAIMSAFPGERVTMTCSASSSVRYMYWHQQKPGSSPRLLIYDTSNLASGVPVRFSGSGSGTSYSLTISRDEAMDAATYYCQQWSSFPRTFGGGTKLEIKR
B11: Mutation 1-5 (antibody, V domains shown)
VH: EVQLQQSGTELVRPGALVKLSCKASGFNIKDYYLHWVKQRPRQGLEWIGWIDPENGKTIYDPKFQDKASITSDTSTNTAYLQLRSLTSEDTAVYYCVSAYYRFVYWGQGTLVTVSA
VL: QIVLTQSPAIMSAFPGERVTMTCSASTSVRYMYWHQQKPGSSPRLLIYDTSNVASGVPVRFSGSGSGTSYSLTISRDEAMDAATYYCQQWSSFPRTFGGGTKLEIKR
B12: Mutation 1-34 (antibody, V domains shown)
VH: EVQLQQSGTELVRPGALVKLSCKASGFNIKDYYIHWVKQRPRQGLEWIGWIDPENGKTIYDPKFQDKASITSDTSTNTAYLQLRSLTSEDTAVYYCVSAYVRFVYWGQGTLVTVSA
VL: QIVLTQSPAIMSAFPGERVTMTCSASSSVRYMYWHQQKPGSSPRLLIYDTSNLASGVPVRFSGSGSGTSYSLTISRDEAMDAATYYCQQWSSFPRTFGGGTKLEIKR
B13: WT 1-20 (antibody, V domains shown)
VH: EVQLQQSGTELVRPGALVKLSCKASGFNIKEYYIHWVKQRPRQGLEWIGWIDPDNGKTLYDPKVQDKASITSDTSTNTAYLQLRSLTSEDTAVYYCVSAYFRFVYWGQGTLVTVSA
VL: QIVLTQSPAIMSAFPGERVTMTCSASSSVKYMYWHQQKPGSSPRLLIYETSNIASGFPVRFSGSGSGTSYSLTISRDEAMDAATYYCQQQSSYPRTFGGGTKLEIKR
B14: Mutation 1-39 (antibody, V domains shown)
VH: EVQLQQSGTELVRPGALVKLSCKASGFNIKDYYVHWVKQRPRQGLEWIGWIDPENGKTIYDPKFQDKASITSDTSTNTAYLQLRSLTSEDTAVYYCVTAYFRFVYWGQGTLVTVSA
VL: QIVLTQSPAIMSAFPGERVTMTCSASTSVRYMYWHQQKPGSSPRLLIYDTSNLASGVPVRFSGSGSGTSYSLTISRDEAMDAATYYCQQWSSFPRTFGGGTKLEIKR
B15: Mutation 1-37 (antibody, V domains shown)
VH: EVQLQQSGTELVRPGALVKLSCKASGFNIKDYYIHWVKQRPRQGLEWIGWIDPENGKTLYDPKFQDKASITSDTSTNTAYLQLRSLTSEDTAVYYCVSAYYRFVYWGQGTLVTVSA
VL: QIVLTQSPAIMSAFPGERVTMTCSASTSVRYMYWHQQKPGSSPRLLIYDTSNVASGVPVRFSGSGSGTSYSLTISRDEAMDAATYYCQQWSSTPRTFGGGTKLEIKR
B16: Mutation 1-2 (antibody, V domains shown)
VH: EVQLQQSGTELVRPGALVKLSCKASGFNIKDYYLHWVKQRPRQGLEWIGWIDPENGKTLYDPKFQDKASITSDTSTNTAYLQLRSLTSEDTAVYYCVTAYYRFVYWGQGTLVTVSA
VL: QIVLTQSPAIMSAFPGERVTMTCSASSSVRYMYWHQQKPGSSPRLLIYDTSNVASGVPVRFSGSGSGTSYSLTISRDEAMDAATYYCQQWSSFPRTFGGGTKLEIKR
B17: Mutation 1-3 (antibody, V domains shown)
VH: EVQLQQSGTELVRPGALVKLSCKASGFNIKDYYVHWVKQRPRQGLEWIGWIDPENGKTIYDPKFQDKASITSDTSTNTAYLQLRSLTSEDTAVYYCVSAYVRFVYWGQGTLVTVSA
VL: QIVLTQSPAIMSAFPGERVTMTCSASTSVRYMYWHQQKPGSSPRLLIYDTSNIASGVPVRFSGSGSGTSYSLTISRDEAMDAATYYCQQWSSTPRTFGGGTKLEIKR
B18: Mutation 1-40 (antibody, V domains shown)
VH: EVQLQQSGTELVRPGALVKLSCKASGFNIKDYYIHWVKQRPRQGLEWIGWIDPENGKTLYDPKFQDKASITSDTSTNTAYLQLRSLTSEDTAVYYCVTAYVRFVYWGQGTLVTVSA
VL: QIVLTQSPAIMSAFPGERVTMTCSASSSVRYMYWHQQKPGSSPRLLIYDTSNVASGVPVRFSGSGSGTSYSLTISRDEAMDAATYYCQQWSSTPRTFGGGTKLEIKR
B19: WT 1-4 (antibody, V domains shown)
VH: EVQLQQSGTELVRPGALVKLSCKASGFNIKEYYLHWVKQRPRQGLEWIGWIDPDNGKTLYDPKVQDKASITSDTSTNTAYLQLRSLTSEDTAVYYCVTAYYRFVYWGQGTLVTVSA
VL: QIVLTQSPAIMSAFPGERVTMTCSASSSVKYMYWHQQKPGSSPRLLIYETSNLASGFPVRFSGSGSGTSYSLTISRDEAMDAATYYCQQQSSFPRTFGGGTKLEIKR
B20: Mutation 1-35 (antibody, V domains shown)
VH: EVQLQQSGTELVRPGALVKLSCKASGFNIKDYYLHWVKQRPRQGLEWIGWIDPENGKTLYDPKFQDKASITSDTSTNTAYLQLRSLTSEDTAVYYCVSAYYRFVYWGQGTLVTVSA
VL: QIVLTQSPAIMSAFPGERVTMTCSASTSVRYMYWHQQKPGSSPRLLIYDTSNVASGVPVRFSGSGSGTSYSLTISRDEAMDAATYYCQQWSSTPRTFGGGTKLEIKR

Biological target: DN-III quality control recombinant protein (produced by Fapon Biotech InC.) (dengue virus)
Assay: BLI, AMC sensor, antibody captured

For B1, which Kd is on record?
The Kd was 0.115 nM.

And the koff?
The koff was 3.94e-05 s⁻¹.

What about the kon of the same binder?
Its kon is 344000 M⁻¹ s⁻¹.

Which Kd does the source give for B2 here?
Its Kd is 0.36 nM.

What about the koff of the same binder?
The koff was 1.37e-05 s⁻¹.

And the kon?
Its kon is 37800 M⁻¹ s⁻¹.

How did the Kd turn out when B3 was run?
Its Kd is 3.7 nM.

What about the koff of the same binder?
The koff was 1.53e-05 s⁻¹.

And the kon?
The kon was 4090 M⁻¹ s⁻¹.

B4 was tested. Which Kd did it give?
Its Kd is 0.79 nM.

What about the koff of the same binder?
Its koff is 3.47e-05 s⁻¹.

What about the kon of the same binder?
Its kon is 44100 M⁻¹ s⁻¹.

With B5 as the binder, how does the Kd read?
Its Kd is 0.72 nM.

What about the koff of the same binder?
Its koff is 2.38e-05 s⁻¹.

And the kon?
The kon was 33100 M⁻¹ s⁻¹.

B6 was tested. Which Kd did it give?
The Kd was 0.99 nM.

What about the koff of the same binder?
The koff was 4.68e-05 s⁻¹.

What about the kon of the same binder?
The kon was 47500 M⁻¹ s⁻¹.

Which results are given for B7?
Kd: 0.29 nM; koff: 1.04e-05 s⁻¹; kon: 36200 M⁻¹ s⁻¹

What does the source list for B8?
Kd: 6 nM; koff: 2.28e-05 s⁻¹; kon: 3770 M⁻¹ s⁻¹

B9 was tested. Which Kd did it give?
Its Kd is 0.35 nM.

And the koff?
The koff was 1.23e-05 s⁻¹.

What about the kon of the same binder?
The kon was 35200 M⁻¹ s⁻¹.

For B10, which Kd is on record?
Its Kd is 0.34 nM.

What about the koff of the same binder?
The koff was 1.53e-05 s⁻¹.

What about the kon of the same binder?
The kon was 44900 M⁻¹ s⁻¹.

Which results are given for B11?
Kd: 0.43 nM; koff: 2.11e-05 s⁻¹; kon: 49700 M⁻¹ s⁻¹

What does the source list for B12?
Kd: 0.44 nM; koff: 1.34e-05 s⁻¹; kon: 30600 M⁻¹ s⁻¹

What does the source list for B13?
Kd: 5.3 nM; koff: 1.64e-05 s⁻¹; kon: 3120 M⁻¹ s⁻¹

Which results are given for B14?
Kd: 0.83 nM; koff: 3.75e-05 s⁻¹; kon: 45100 M⁻¹ s⁻¹

Which results are given for B15?
Kd: 0.35 nM; koff: 1.71e-05 s⁻¹; kon: 48500 M⁻¹ s⁻¹

Which Kd does the source give for B16 here?
Its Kd is 0.103 nM.

And the koff?
The koff was 4.99e-05 s⁻¹.

And the kon?
The kon was 483000 M⁻¹ s⁻¹.

With B17 as the binder, how does the Kd read?
Its Kd is 0.32 nM.

And the koff?
Its koff is 1.51e-05 s⁻¹.

And the kon?
The kon was 47400 M⁻¹ s⁻¹.

How did the Kd turn out when B18 was run?
Its Kd is 0.115 nM.

And the koff?
Its koff is 4.95e-05 s⁻¹.

What about the kon of the same binder?
Its kon is 432000 M⁻¹ s⁻¹.

Which results are given for B19?
Kd: 11.9 nM; koff: 4.95e-05 s⁻¹; kon: 4150 M⁻¹ s⁻¹

How did the Kd turn out when B20 was run?
The Kd was 1.04 nM.

And the koff?
The koff was 4.35e-05 s⁻¹.

And the kon?
Its kon is 41900 M⁻¹ s⁻¹.
